Biological target: PD1 (programmed cell death protein 1) (human, UniProt Q15116 25-288)
Assay: cell-based or functional assay

Chain of PD1 (programmed cell death protein 1) (Q15116 25-288): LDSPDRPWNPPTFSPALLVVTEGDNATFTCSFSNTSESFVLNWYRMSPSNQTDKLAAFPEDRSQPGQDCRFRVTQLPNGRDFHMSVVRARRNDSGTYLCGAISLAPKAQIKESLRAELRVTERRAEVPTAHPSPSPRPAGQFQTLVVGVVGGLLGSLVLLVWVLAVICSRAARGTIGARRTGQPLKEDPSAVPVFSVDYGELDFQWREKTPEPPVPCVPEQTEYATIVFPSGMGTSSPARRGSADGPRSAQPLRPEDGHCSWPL

B1: XmAb®20717 (bispecific antibody, human IgG1, kappa)
heavy: not shown
scFv: EIVLTQSPATLSASPGERVTLTCRASQSVGNDVAWYQQKPGQAPRLLINYASHRYTGVPDRFTGSGYGTEFTLTISSVQSEDFGVYYCQQDFSSPRTFGGGTKVEIKGKPGSGKPGSGKPGSGKPGSEVQLVESGGGLVKPGGSLRLSCVASGFTFSNYWMNWVRQAPGKGLEWVAEIRLYSNNYATHYAESVKGRFTISRDDSKSTLYLQMNNLKTEDTGVYYCTRYYGNYGGYFDVWGRGTLVTVSSEPKSSDKTHTCPPCPAPPVAGPSVFLFPPKPKDTLMISRTPEVTCVVVDVKHEDPEVKFNWYVDGVEVHNAKTKPREEQYNSTYRVVSVLTVLHQDWLNGKEYKCKVSNKALPAPIEKTISKAKGQPREPQVYTLPPSREQMTKNQVKLTCLVKGFYPSDIAVEWESNGQPENNYKTTPPVLDSDGSFFLYSKLTVDKSRWQQGNVFSCSVLHEALHSHYTQKSLSLSPGK
light: not shown
IL-2 secretion (ELISA of culture supernatants) from SEB-stimulated human PBMC treated 24 hours, versus anti-RSV isotype-control bivalent antibody XENP15074: 4.1 fold | IL-2 secretion (ELISA) from SEB-stimulated human PBMC, versus a mixture of the monovalent component antibodies XENP20111 (anti-PD1 scFv-Fc) and XENP20059 (anti-CTLA4 Fab-Fc): 1.6 fold | IL-2 secretion (ELISA) from SEB-stimulated human PBMC, versus the bivalent anti-PD1 antibody XENP16432: 1.5 fold
